How the values were obtained:
[1] = target: T1, human RANK-L (human, UniProt O14788 140-317, limits assumed); assay: AlphaScreen, biotin-hRANK-L / RANK-huFc beads
T1 construct: Soluble protein, used coated, biotinylated or labelled in ELISA, AlphaScreen, FMAT and Biacore; also called hRANK-L; soluble human RANK-L
T1 sequence (looked up): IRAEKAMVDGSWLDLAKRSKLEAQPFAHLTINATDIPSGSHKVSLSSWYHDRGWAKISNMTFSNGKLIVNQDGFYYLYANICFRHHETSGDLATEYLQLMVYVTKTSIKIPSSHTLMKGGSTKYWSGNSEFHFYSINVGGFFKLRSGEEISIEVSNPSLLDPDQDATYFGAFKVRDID

[2] = target: T1, human RANK-L; assay: FMAT, ALEXA647-hRANK-L / RANK on HEK293T cells
[3] = target: T1, human RANK-L; assay: AlphaScreen, biotin-hRANK-L / RANK-huFc beads; remark: listed apart in the source
[4] = target: T2, human RANK-L, full length, membrane-bound, expressed on HEK293T cells (human, UniProt O14788 1-317); assay: FACS, HEK293T with human RANK-L, 3.2 pM Nanobody
T2 construct: whole, on cells; also called hRANK-L
T2 sequence (looked up): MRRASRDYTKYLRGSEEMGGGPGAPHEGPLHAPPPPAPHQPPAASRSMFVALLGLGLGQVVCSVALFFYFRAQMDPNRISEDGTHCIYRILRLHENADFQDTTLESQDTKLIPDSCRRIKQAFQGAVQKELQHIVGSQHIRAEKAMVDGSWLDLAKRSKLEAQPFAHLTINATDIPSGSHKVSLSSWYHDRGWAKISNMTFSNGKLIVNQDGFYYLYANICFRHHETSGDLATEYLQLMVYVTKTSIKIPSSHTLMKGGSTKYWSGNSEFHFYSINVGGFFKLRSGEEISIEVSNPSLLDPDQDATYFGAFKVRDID
Method: (§1) Human embryonic kidney cells (HEK293T) were grown in Dulbecco's modified Eagles's medium supplemented with 10% fetal bovine serum (FBS), […] L-glutamine, 0.4 mM sodium pyruvate. […] After 48 hours, transfected cells were subjected to FACS analysis. […] Then cells were washed three times with FACS buffer. Bound Nanobodies were detected by subsequent incubations of a primary mouse anti Myc antibody (30 min at 4° C. (2 μg/ml)) and a second incubation with goat anti mouse-Phycoerythrin (PE) (Jackson Laboratories) for another 30 min at 4° C. Finally, after washing, the cells were resuspended in PBS+10% FBS+TO-PRO®-3 (5 nM) (Molecular Probes®, Invitrogen, Merelbeke, Belgium) and cell surface fluorescence expressed as mean PE fluorescence, was measured using flow cytometry.

[5] = target: T2, human RANK-L, full length, …; assay: FACS, HEK293T with human RANK-L, 16 pM Nanobody
Method: as §1

[6] = target: T3, mouse RANK-L (mouse, UniProt O35235 158-316, limits assumed); assay: ELISA, set-up as for human RANK-L
T3 construct: also called murine RANK-L
T3 sequence (looked up): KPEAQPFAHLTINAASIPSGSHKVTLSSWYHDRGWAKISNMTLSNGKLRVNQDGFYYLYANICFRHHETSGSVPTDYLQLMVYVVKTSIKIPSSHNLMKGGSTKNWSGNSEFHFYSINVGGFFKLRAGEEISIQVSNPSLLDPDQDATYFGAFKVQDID
Method: (§2) Therefore 2 μg/ml neutravidin was coated overnight at 4° C. The plates were washed 5 times with 300 μl PBS and then blocked with […] 1% casein/PBS for 2 hours at room temperature. […] After extensive washing with PBS, varying concentrations of Nanobodies starting from 500 nM to 160 pM diluted in 1% casein/PBS were added to the wells and the plates were incubated for 1 hour at room temperature. Bound Nanobodies were detected by subsequent incubations of a primary mouse anti-myc antibody and a secondary anti mouse-HRP conjugate (DAKO, Glostrup, Denmark) and using TMB-H2O2 (Pierce, Rockford, Ill., USA) substrate cocktail. The reaction was stopped with H₂SO₄ and the OD was read at 450 nm.

[7] = target: T2, human RANK-L, full length, …; assay: FACS, HEK293T with human RANK-L, 400 pM Nanobody
Method: as §1

[8] = target: T4, TRAIL (UniProt P50591 114-281, limits assumed); assay: competition ELISA on RANK-L-coated plates, 1 nM Nanobody preincubated with the ligand
T4 construct: also called tumor necrosis factor-related apoptosis inducing ligand

[9] = target: T5, TNFα (UniProt P01375 77-233); assay: as above
T5 construct: also called TNF-alpha

[10] = target: T6, CD40 ligand (UniProt P29965 113-261, limits assumed); assay: as above
T6 sequence (looked up): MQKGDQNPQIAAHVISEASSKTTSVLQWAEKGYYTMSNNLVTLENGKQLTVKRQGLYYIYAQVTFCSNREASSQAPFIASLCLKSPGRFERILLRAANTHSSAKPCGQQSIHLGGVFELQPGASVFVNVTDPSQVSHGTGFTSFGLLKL

[11] = target: T2, human RANK-L, full length, …; assay: FACS, HEK293T with human RANK-L, 80 pM Nanobody
Method: as §1

[12] = target: T1, human RANK-L; assay: ELISA (ED50), biotin-hRANK-L on neutravidin
Method: as §2

[13] = target: T1, human RANK-L; assay: AlphaScreen, biotin-hRANK-L / RANK-huFc beads; remark: listed apart in the source
Method: To this mixture, the RANK acceptor beads and the streptavidin donor beads were added and further incubated for 1 hour at room temperature. Fluorescence was measured by reading plates on the EnVision Multilabel Plate Reader (Perkin Elmer) using an excitation wavelength of 680 nm and an emission wavelength of 520 nm.

[14] = target: T2, human RANK-L, full length, …; assay: FACS, HEK293T with human RANK-L, 2000 pM Nanobody
Method: as §1

T4 sequence (P50591 114-281 limits assumed): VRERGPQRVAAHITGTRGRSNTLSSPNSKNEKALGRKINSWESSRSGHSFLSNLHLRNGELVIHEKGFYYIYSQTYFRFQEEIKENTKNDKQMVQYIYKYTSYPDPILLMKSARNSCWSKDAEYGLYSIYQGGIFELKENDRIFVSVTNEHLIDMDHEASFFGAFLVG
T5 sequence (P01375 77-233 limits assumed): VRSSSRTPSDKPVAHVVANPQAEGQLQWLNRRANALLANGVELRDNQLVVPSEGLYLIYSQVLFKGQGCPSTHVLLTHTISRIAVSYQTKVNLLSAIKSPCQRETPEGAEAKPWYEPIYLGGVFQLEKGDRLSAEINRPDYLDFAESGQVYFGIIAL

B1: RANKL93biv (VHH)
chain: EVQLVESGGGLVQAGGSLRLTCAASGRTFRSYAMGWFRQAPGKEREFVAAINYSGGSTNYADSVKGRFTISRDNAKNTLYLQMNSLEPEDTAVYYCAAGSGYASLSYYSTERAYTYWGQGTQVTVSSGGGGSGGGGSGGGGSGGGGSGGGGSGGGGSEVQLVESGGGLVQAGGSLRLTCAASGRTFRSYAMGWFRQAPGKEREFVAAINYSGGSTNYADSVKGRFTISRDNAKNTLYLQMNSLEPEDTAVYYCAAGSGYASLSYYSTERAYTYWGQGTQVTVSS
notes: Bivalent Nanobody; also called RANKL9-30GS-RANKL9
IC50 [1]: 0.066 nM | IC50 [2]: 0.048 nM

B2: RANKL9 (VHH)
VHH: EVQLVESGGGLVQAGGSLRLTCAASGRTFRSYAMGWFRQAPGKEREFVAAINYSGGSTNYADSVKGRFTISRDNAKNTLYLQMNSLEPEDTAVYYCAAGSGYASLSYYSTERAYTYWGQGTQVTVSS
notes: not shown: c-myc and His6 tags
IC50 [1]: 0.238 nM | IC50 [3]: 0.341 nM | IC50 [2]: 0.13 nM | PE mean fluorescence [4]: 381 | PE mean fluorescence [5]: 1350 | binding result [6]: no binding (tested: 500 nM to 160 pM) | PE mean fluorescence [7]: 3360 | binding result [8]: no binding (tested: approximately 100 nM) | binding result [9]: no binding (tested: approximately 100 nM) | binding result [10]: no binding (tested: approximately 100 nM) | PE mean fluorescence [11]: 2280 | EC50 [12]: 0.542 nM | IC50 [13]: 0.137 nM | PE mean fluorescence [14]: 4860

B3: RANKL91biv (VHH)
chain: EVQLVESGGGLVQAGGSLRLTCAASGRTFRSYAMGWFRQAPGKEREFVAAINYSGGSTNYADSVKGRFTISRDNAKNTLYLQMNSLEPEDTAVYYCAAGSGYASLSYYSTERAYTYWGQGTQVTVSSGGGGSGGGSEVQLVESGGGLVQAGGSLRLTCAASGRTFRSYAMGWFRQAPGKEREFVAAINYSGGSTNYADSVKGRFTISRDNAKNTLYLQMNSLEPEDTAVYYCAAGSGYASLSYYSTERAYTYWGQGTQVTVSS
notes: Bivalent Nanobody; also called RANKL9-9GS-RANKL9
IC50 [1]: 0.153 nM | IC50 [2]: 0.09 nM

B4: RANKL6 (VHH)
VHH: EVQLVESGGGLMQTGGSLRLSCAASGVTYSYYTASWFRQAPGKEREFVAAISPSGNTYYADSVKGRFTISRDNGKHTMYLQMNSLNPEDTAVYFCAIRATDSIYYASSYRHWGQGTQVTVSS
notes: as for B2
IC50 [3]: 0.777 nM | PE mean fluorescence [4]: 347 | PE mean fluorescence [5]: 434 | binding result [6]: no binding (tested: 500 nM to 160 pM) | PE mean fluorescence [7]: 4580 | binding result [8]: no binding (tested: approximately 100 nM) | binding result [9]: no binding (tested: approximately 100 nM) | binding result [10]: no binding (tested: approximately 100 nM) | PE mean fluorescence [11]: 1700 | EC50 [12]: 0.385 nM | IC50 [13]: 0.288 nM | PE mean fluorescence [14]: 12800

B5: RANKL18hum6Bi_30 (VHH)
chain: EVQLVESGGGLVQPGGSLRLSCAASGRTFSRSAMGWFRQAPGKGREFVGFITGSGGTTYYADSVKGRFTISRDNAQNPVYLQMNSLRPEDTAVYYCAVYRRTYISSTYSESSEYDYWGQGTLVTVSSGGGGSGGGGSGGGGSGGGGSGGGGSGGGGSEVQLVESGGGLVQPGGSLRLSCAASGRTFSRSAMGWFRQAPGKGREFVGFITGSGGTTYYADSVKGRFTISRDNAQNPVYLQMNSLRPEDTAVYYCAVYRRTYISSTYSESSEYDYWGQGTLVTVSS
notes: Bivalent humanized Nanobody; also called RANKL18Hum6-30GS-RANKL18Hum6
IC50 [1]: 0.05 nM | IC50 [2]: 0.038 nM

B6: RANKL92biv (VHH)
chain: EVQLVESGGGLVQAGGSLRLTCAASGRTFRSYAMGWFRQAPGKEREFVAAINYSGGSTNYADSVKGRFTISRDNAKNTLYLQMNSLEPEDTAVYYCAAGSGYASLSYYSTERAYTYWGQGTQVTVSSGGGGSGGGGSGGGGSGGGGSEVQLVESGGGLVQAGGSLRLTCAASGRTFRSYAMGWFRQAPGKEREFVAAINYSGGSTNYADSVKGRFTISRDNAKNTLYLQMNSLEPEDTAVYYCAAGSGYASLSYYSTERAYTYWGQGTQVTVSS
notes: Bivalent Nanobody; also called RANKL9-20GS-RANKL9
IC50 [1]: 0.07 nM | IC50 [2]: 0.032 nM

B7: RANKL94biv (VHH)
chain: EVQLVESGGGLVQAGGSLRLTCAASGRTFRSYAMGWFRQAPGKEREFVAAINYSGGSTNYADSVKGRFTISRDNAKNTLYLQMNSLEPEDTAVYYCAAGSGYASLSYYSTERAYTYWGQGTQVTVSSGGGGSGGGGSGGGGSEVQLVESGGGLVQAGGSLRLTCAASGRTFRSYAMGWFRQAPGKEREFVAAINYSGGSTNYADSVKGRFTISRDNAKNTLYLQMNSLEPEDTAVYYCAAGSGYASLSYYSTERAYTYWGQGTQVTVSS
notes: Bivalent Nanobody; also called RANKL9-15GS-RANKL9
IC50 [1]: 0.072 nM | IC50 [2]: 0.03 nM

B8: RANKL18hum6Bi_25 (VHH)
chain: EVQLVESGGGLVQPGGSLRLSCAASGRTFSRSAMGWFRQAPGKGREFVGFITGSGGTTYYADSVKGRFTISRDNAQNPVYLQMNSLRPEDTAVYYCAVYRRTYISSTYSESSEYDYWGQGTLVTVSSGGGGSGGGGSGGGGSGGGGSGGGGSEVQLVESGGGLVQPGGSLRLSCAASGRTFSRSAMGWFRQAPGKGREFVGFITGSGGTTYYADSVKGRFTISRDNAQNPVYLQMNSLRPEDTAVYYCAVYRRTYISSTYSESSEYDYWGQGTLVTVSS
notes: Bivalent humanized Nanobody; also called RANKL18Hum6-25GS-RANKL18Hum6
IC50 [1]: 0.1 nM | IC50 [2]: 0.038 nM

Reference: patent US20110002929A1 (Ablynx, published 2011)
